Measured values published in US20240245805A1 (Orna Therapeutics, Inc., priority 2020, published 2024).

tested on: HEK293 cells; type: cell-based, human; settings: circular RNA encoding Gluc with the listed IRES (UTR truncated to 675 nt) transfected into HEK293 cells; supernatant after 24 hours

Molecule	Expression (luminescence from secreted Gluc protein)
Fipivirus E (nucleic acid, lipid formulation; Fipivirus E) CTCTTCCGATCTTGGGGGTTCGCCCCCATGTCTCATTTCAACTAGCCGTGTGTCTAGTTAACGCACCGCCTCACCCTGGTCGTTATCGGGTCGGTTCTTGCGACCGTTAGATCGTGAGCGTTTCTGAGGATCAGTTCGTATAAGTTCTCCGGTGTGGCGACCGTAAAATCGTCACGTCCCATGCAATAGATGACGTTAAACTCGTTTGCCAGTTACATAAAGGAATGTTGTTACTTTTAAATTGTCTGTTACATTTAACATCTTGCCAGTATGATGCTACTGTACACTACGGGTGTAGGAACCTTGTAGTGTGACGTATCACTCATATGTGGATGGGTGCTCCAGACCTTTATGGAAGCTCTCAGTTAGTAGTGATCCTTGACTTCATTGAGCCCTGGTAACAGTGGAAGTCAAGATGTATATGTTGCTCAACACACTTCGGTGCTACGAAGCTGTTTGTGGAAGTACTGGCGAGGTTCATTCTGAATCATATGTTTGTCACATAGTCAGGGAGTGCCGTCGCTTACGACGGACCCTTTTTCTTTATAATTACAAATCTGTGTCTCAAGTGTTGTTGGCTGGTTTTCTTCTTCTGTTTTCATTGTTCATATATATACGTCAGAGTGAAAGACTCGGTATATACAAAACTGATCCAGA	1.10E+05
Limnipivirus C (nucleic acid, lipid formulation; Limnipivirus C) DNA: GTTTCTGAGCACTGGTAAGAGCTTAGACAAACGTTTTTAAAATTTATTTTCTCTGCAACTTTTGTTTGTGTTTATTTTTATTTGTTAATTTTGCGCCTAAGCATTTGTTGCGAAGTATTTGATTCATTAGTAATATTACTTATTGTTTATTTAGATGGTATTCAAAGTGGTGGGAGTATCGAACCCAAGCGTCGTATGCTATCTCCTTGAACAATTTTTAATCATTGCGAAGTGATCATTGAAAAGGATAGGTGTTTAAGAACTCAAAGAGTGTTAATAATGTTGGGTGACAGGTGTCCCCATAGAATTTATTAACATGATTTGGACTGGTTATCTAGTAAGAAGAACCATCGAACGCACGAGCGAGCATTGCTTGCGGGGCAGTTACCCTGCGTCGATGTAAGTGTGTACCGGGGGGTGCACATGTTGATTCTTTATGGCCTGATAGGGTGCGTCATTCGCGCCTAGATAATTAGTATAATGCGAATGGAATAAATTTAC	1.35E+05
Orivirus (nucleic acid, listed as Orivirus sp., lipid formulation) DNA: GGTCCCAGGCCAATATTCTTCGTAAGGCTTGGTTCCAATTTTCCACCACTCGTGTTTGGGTTCTGGCCTATGGTACCCAGAGGGGCGGTTTGGGGGAATTAACTCCCCCTCCCCTGTGGTCCTATACCACCCCACACCTCTGTGGGCTTTCTTTACTATCTTCTTGTTTTCCGACTTTTAAACACTAGGCAGGCGCGCCTAGTCATACACCGCCCGGCTGGTCTTTCCAGCTCTTGTGGGCGGTGCGCGCTGGTCCATCGTGCCCAGCGACATAGCACCTTGTGGACACCTCCGAACGCCCTCCCCTGTATGGGGTGGTGCCCAGGGGTTTCAGTGTGGTGACACACTCCCTGGGGCCCGAAAGGCTAGTGTGCAACAGGTGAGGTACAGCCAGCTGCCCCCGTGGCTGGAGGGACCAAGCTTGTGAAGCACACCTCACCTTCTTGGGGGTGGGCTAGTAAGTGGTGAAAGCATAGTGTCCGTGTCGCTGGCCAACACTTTGGGTCAAGTCCAGCCACTCAGTGAGTAGATGCCCAGGAGGTACCCCTAGTGGATCTGACTTGGGGCCTGTTACTTAATGCAGGTTAAAAACTATGAAAGCTGAGTAGTGTAGCCCGGCTGGTGGCTTCTCTTCCTTATTCATTCTATTTTATGGTGACAAACGCAACTGAAGCC	6.09E+05
HAV FH1 (nucleic acid, lipid formulation; Hepatovirus A) CTTGATACCTCACCGCCGTTTGCCTAGGCTATAGGCTAAATTTCCCTTTCCCTGTCCTTTCCCTATTTCCTTTTGTTTTGTTTGTAAATATTAATTCCTGCAGGTTCAGGGTTCTTTAATCTGTTTCTCTATAAGAACACTCAATTTTCACGCTTTCTGTCTCCTTTCTTCCAGGGCTCTCCCCTTGCCCTAGGCTCTGGCCGTTGCGCCCGGCGGGGTCAACTCCATGATTAGCATGGAGCTGTAGGAGTCTAAATTGGGGACGCAGATGTTTGGGACGTCGCCTTGCAGTGTTAACTTGGCTTTCATGAACCTCTTTGATCTTCCACAAGGGGTAGGCTACGGGTGAAACCTCTTAGGCTAATACTTCTATGAAGAGATGCCTTGGATAGGGTAACAGCGGCGGATATTGGTGAGTTGTTAAGACAAAAACCATTCAACGCCGAAGGACTGGCTCTCATCCAGTGGATGCATTGAGGGAATTGATTGTCAGGGCTGTCTCTAGGTTTAATCTCAGACCTCTCTGTGCTTAGGGCAAACACTATTTGGCCTTAAATGGGATCCTGTGAGAGGGGGTCCCTCCATTGACAGCTGGACTGTTCTTTGGGGCCTTATGTGGTGTTTGCCTCTGAGGTACTCAGGGGCATTTAGGTTTTTCCTCATTCTTAAACAATA	1.24E+05
HAV HM175 (nucleic acid, lipid formulation; Hepatovirus A) CGCCGTTTGCCTAGGCTATAGGCTAAATTTTCCCTTTCCCTTTTCCCTTTCCTATTCCCTTTGTTTTGCTTGTAAATATTGATTTGTAAATATTGATTCCTGCAGGTTCAGGGTTCTTAAATCTGTTTCTCTATAAGAACACTCATTTCACGCTTTCTGTCTTCTTTCTTCCAGGGCTCTCCCCTTGCCCTAGGCTCTGGCCGTTGCGCCCGGCGGGGTCAACTCCATGATTAGCATGGAGCTGTAGGAGTCTAAATTGGGGACACAGATGTTTGGAACGTCACCTTGCAGTGTTAACTTGGCTTTCATGAATCTCTTTGATCTTCCACAAGGGGTAGGCTACGGGTGAAACCTCTTAGGCTAATACTTCTATGAAGAGATGCCTTGGATAGGGTAACAGCGGCGGATATTGGTGAGTTGTTAAGACAAAAACCATTCAACGCCGGAGGACTGACTCTCATCCAGTGGATGCATTGAGTGGATTGACTGTCGGGGCTGTCTTTAGGCTTAATTCCAGACCTCTCTGTGCTTGGGGCAAACATCATTTGGCCTTAAATGGGATTCTGTGAGAGGGGATCCCTCCATTGCCAGCTGGACTGTTCTTTGGGGCCTTATGTGGTGTTTGCCGCTGAGGTACTCAGGGGCATTTAGGTTTTTCCTCATTCTTAAATAATA	4.96E+05
Parechovirus D (nucleic acid, lipid formulation; Parechovirus D) DNA: ACATGGGGCAGGTGTGCTGTGCCAAGAGCAACACTACGGTGGCCGAGCCGATGGTTCGTCACCACGTAGTAGGACTCCGTAGTGCTTGGTTACGGCGGACGTAAGTCAGTTGAGTGATGTCTAAGTGGCAAACCATGAGTACATGGTAACCTTGTGTGGACTCGCGGGACGGAATTTCCTATCCCATTGACTCCTTGTAGCAAGGTGGGTATACCCAACCACAATGGCAGCACCCTGGGTGGGAACCCAGGGGCCTGGATTAGTATCCAGTCACACAGCCTGATAGGGTGGCGGCTCAGCCACTGACCAGCGTCTCTAAATAATTGTGAGCTGTTCATGCACC	3.10E+05
Parechovirus C (nucleic acid, lipid formulation; Parechovirus C) DNA: CGGTCATCCCCCTTTCCCCACAGCCGGTGTGGGTTCTAATCGGCTCCTACTAAACACCTAAGCATCACTGCGCCTCTATCTCTCCTATCCACAGGTCTAAGACGCTTGGAATAAGACATGTGGGTGCAATAGGAAGATTAGCTAGTCCAATCTCTCCTTCCAGCTACGCTTCTCCCTTCGATGAGCGTAGGGGGGGCCCCCACCTCCCTCATCTCTGGATAGGGCTCTTGCTACGGGGCTTTCCCGTCTGGACCAGCAGGCCCACTGGTGCGCTTCCATTCAAGTTTAGTGTGCATTACTGTCTGAAATATTGCTTTGCTAGGATCTAGTGTAGCGACCTGCATATTGCCAGCGGACTTCCCCACATGGTAACATGTGCCTCTGGGCCCAAAAGGCATGTCTTTGACCGTATGCAGTACAACCCCAGTATAGGTCCTTTCTATGGCAGTATGGATCTCAGTGATGAGTCTATACAGAATATGGAAGTGGTTCGGATATGTCAGCCCGAAGGATGCCCAGAAGGTACCCGCAGATAACCTTAAGAGACTGTGGATCTGATCTGGGGCCCACCACCTTCGGGTGGGTAGAAGCTAACCATGCCTTGGGTTAAAAAACGTCTAAGGGCTGACCAGACCCGGGGGATCCGGGTTTTCCCTATCTTGACCTACTCTAATC	1.24E+06
Simian Sapelovirus 1 (nucleic acid, listed as Sapelovirus sp.) DNA: CCAAGGATCTGTTGCATAGGCGTTGTATCCCCTAACCTTTTACCTACCCATCCCAATAGGACTGGTATTTCGGTTTTGATTGAGTAATGGATACTGATTCTATACCTGTTACCCATTCAGGGGAAAAATGGAGTTTCTTTCATGGATCTGACTTGATATGACCAAGAGTCAACACTTTGCGTGTTGGCCGTATGGAATGCTTTAAGGTTTATTCTTTGGATTATGACTTCAGGGTTGGCCGCCCAGGATAAAAGGCAATTGTGGTAAGTGATGTTAGTCATTGGTGGTTGAAACCTGCCTAAGACGTCCTAGGTCTACGCTGTGCGGGCCGAAGTAAGCTTAGGAATAACAGGGAGTATGCCATTTTCTGCTTTCACCCAACACGACCGTACACGAAAGAGCTAGAGGCACTTTGGGGCAAAGGGAAAAGCTTTGCTTAGCCCGAATGTTCATTTGAGTCCTTGACGAATGCGTCCCGTCTGTCCCGACGGTGAGGCGTATGGCGCATGCTCATGGCATTACCCAATGGTGTATCTGTGAGGGGGGGGCTCCTCACACTTAGTCTAGTGCTACCTGACAGGGCCGCGGCTGGTCGTTTGTGTATGGTATAACCAGTAGTAATCCCCCATGGATTGCTTTAACTTCCCCTCCTCCCTTACCAAGACATTCTCTAAG	6.55E+07
Simian Sapelovirus 2 (nucleic acid, listed as Sapelovirus sp.) DNA: TTTTAACTTGTTATGACATTCAAGGAAAAAATGTCTTTTTCATTATGGGACTGACCTGTTTATGAACATGAGCAGCGGCACTGCTCCACGGGCTATCCGTGTAAGAAATATTGATTATTCTTATGGATCATGATTTCAGGGTTGGCCGCCCAGTCTAAAAGGCAATTGTGGTAAGCTATGTAAGTAGTTGGCTGTTGAAAGGAGCCAAGTACATCCTAGGTCTACGCTGTGCGGGCCGAAGTAAGACTTGGAACAACTCTGAGTAGGCAGTTTTTCTCTTTAGCCCAACACGACCGCATACTGAAGAGCTAGAGGCACTTTGGGGCAAAGGTAAAAGCATTGCTTAGACCGAATGTTCAATGAGACCTTGACGAGTGCTGTCACAGTGTCCCCTGATGGCAGTATGGCGCATGCTCTTGGCATTACCCATATGTGTATCTATAGGGGGGGGGCCCCCTATACTTAGTCTAGTGCTACCTGACAGGGCCGCGGCTGGTCGTCGGTGTGTGGTATAACCAGTAGTAATCCCCCATGGATTGCTTTAACTCCCCCTCCTCCCTCAACAAAACTTTCTCTAAG	4.24E+07
